Test results published in patent US20030068675, “Position dependent recognition of GNN nucleotide triplets by zinc fingers” (published 2003).

Columns and labels:
Assay in all cases: EMSA
Conditions in all cases: tags: MBP fusion
ZFP SBS#1482 = target: T1, ZFP SBS#1482 (synthetic)
T1 chain: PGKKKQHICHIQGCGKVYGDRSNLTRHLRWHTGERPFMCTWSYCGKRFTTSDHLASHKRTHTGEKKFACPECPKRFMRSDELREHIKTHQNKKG
Procedure, shortened: (§1)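 Purified ZFP was titrated against labeled double-stranded target (1 nM or lower, at least 10-fold below expected Kd) carrying the natural binding site with flanks. Binding buffer was 10 mM Tris pH 7.5, 100 mM KCl, 1 mM MgCl2, 0.1 mM ZnCl2, 5 mM DTT, 10% glycerol, 0.02% BSA, with equilibration for at least 45 min. Bound and free target were separated on a 10% polyacrylamide gel.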

ZFP SBS#1483 = target: T2, ZFP SBS#1483 (synthetic)
T2 chain: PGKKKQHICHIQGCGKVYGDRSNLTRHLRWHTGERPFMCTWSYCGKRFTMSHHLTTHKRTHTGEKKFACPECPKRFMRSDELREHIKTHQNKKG
Procedure, shortened: as §1

ZFP SBS#1464 = target: T3, ZFP SBS#1464 (synthetic)
T3 chain: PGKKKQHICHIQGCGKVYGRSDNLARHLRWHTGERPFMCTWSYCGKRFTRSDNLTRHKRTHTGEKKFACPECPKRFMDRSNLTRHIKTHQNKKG
Procedure, shortened: as §1

ZFP SBS#1461 = target: T4, ZFP SBS#1461 (synthetic)
T4 chain: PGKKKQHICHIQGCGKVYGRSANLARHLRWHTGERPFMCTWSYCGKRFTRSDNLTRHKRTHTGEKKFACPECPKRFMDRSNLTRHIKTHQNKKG
Procedure, shortened: as §1

ZFP SBS#1261 = ZFP SBS#1261 (synthetic)
Procedure, shortened: as §1

ZFP SBS#1263 = ZFP SBS#1263 (synthetic)
Procedure, shortened: as §1

ZFP SBS#558 = ZFP SBS#558 (synthetic)
Chain of ZFP SBS#558 (synthetic) (chain, as listed by the source): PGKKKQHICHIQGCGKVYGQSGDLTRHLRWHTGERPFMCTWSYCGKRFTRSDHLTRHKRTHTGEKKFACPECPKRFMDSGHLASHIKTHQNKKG
Procedure, shortened: as §1

ZFP SBS#1262 = ZFP SBS#1262 (synthetic)
Chain of ZFP SBS#1262 (synthetic) (chain, as listed by the source): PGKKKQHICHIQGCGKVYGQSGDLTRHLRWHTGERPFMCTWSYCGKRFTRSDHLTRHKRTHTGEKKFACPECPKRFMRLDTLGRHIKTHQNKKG
Procedure, shortened: as §1

ZFP SBS#1455 = ZFP SBS#1455 (synthetic)
Chain of ZFP SBS#1455 (synthetic) (chain, as listed by the source): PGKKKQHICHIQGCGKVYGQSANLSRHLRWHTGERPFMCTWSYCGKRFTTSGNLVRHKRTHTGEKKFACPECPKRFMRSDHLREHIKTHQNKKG
Procedure, shortened: as §1

ZFP SBS#1462 = ZFP SBS#1462 (synthetic)
Chain of ZFP SBS#1462 (synthetic) (chain, as listed by the source): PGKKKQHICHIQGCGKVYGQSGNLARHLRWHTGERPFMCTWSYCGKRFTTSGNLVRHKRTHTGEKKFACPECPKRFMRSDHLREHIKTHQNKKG
Procedure, shortened: as §1

ZFP SBS#1484 = ZFP SBS#1484 (synthetic)
Chain of ZFP SBS#1484 (synthetic) (chain, as listed by the source): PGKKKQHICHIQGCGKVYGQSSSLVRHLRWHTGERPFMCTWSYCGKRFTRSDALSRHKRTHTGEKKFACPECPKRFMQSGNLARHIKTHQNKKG
Procedure, shortened: as §1

ZFP SBS#1485 = ZFP SBS#1485 (synthetic)
Procedure, shortened: as §1

ZFP SBS#1479 = target: T5, ZFP SBS#1479 (synthetic)
T5 chain: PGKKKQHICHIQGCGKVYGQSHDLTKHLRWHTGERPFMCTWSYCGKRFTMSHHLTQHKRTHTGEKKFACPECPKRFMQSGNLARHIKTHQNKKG
Procedure, shortened: as §1

ZFP SBS#1480 = target: T6, ZFP SBS#1480 (synthetic)
T6 chain: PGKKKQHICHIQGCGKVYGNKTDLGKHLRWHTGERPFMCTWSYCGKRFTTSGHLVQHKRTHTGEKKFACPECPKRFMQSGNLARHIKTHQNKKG
Procedure, shortened: as §1

ZFP SBS#1481 = target: T7, ZFP SBS#1481 (synthetic)
T7 chain: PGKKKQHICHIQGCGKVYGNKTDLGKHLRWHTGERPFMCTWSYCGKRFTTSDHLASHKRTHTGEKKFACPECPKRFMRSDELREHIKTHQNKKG
Procedure, shortened: as §1

ZFP SBS#1470 = target: T8, ZFP SBS#1470 (synthetic)
T8 chain: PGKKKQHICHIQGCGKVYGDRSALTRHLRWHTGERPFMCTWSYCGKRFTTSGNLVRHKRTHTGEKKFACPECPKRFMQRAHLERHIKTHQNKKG
Procedure, shortened: as §1

ZFP SBS#1468 = target: T9, ZFP SBS#1468 (synthetic)
T9 chain: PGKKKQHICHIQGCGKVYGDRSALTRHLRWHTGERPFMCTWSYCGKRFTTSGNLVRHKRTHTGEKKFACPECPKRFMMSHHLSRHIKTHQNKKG
Procedure, shortened: as §1

ZFP SBS#1469 = target: T10, ZFP SBS#1469 (synthetic)
T10 chain: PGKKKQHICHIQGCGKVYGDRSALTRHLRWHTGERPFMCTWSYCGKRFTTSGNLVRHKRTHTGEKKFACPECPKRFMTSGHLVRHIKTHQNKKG
Procedure, shortened: as §1

ZFP SBS#1473 = target: T11, ZFP SBS#1473 (synthetic)
T11 chain: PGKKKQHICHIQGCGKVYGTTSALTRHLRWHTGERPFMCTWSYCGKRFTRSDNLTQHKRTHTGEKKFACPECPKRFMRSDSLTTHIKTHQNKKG
Procedure, shortened: as §1

ZFP SBS#1476 = target: T12, ZFP SBS#1476 (synthetic)
T12 chain: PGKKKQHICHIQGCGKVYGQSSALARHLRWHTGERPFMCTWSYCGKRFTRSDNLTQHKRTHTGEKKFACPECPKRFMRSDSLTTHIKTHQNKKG
Procedure, shortened: as §1

ZFP SBS#1472 = target: T13, ZFP SBS#1472 (synthetic)
T13 chain: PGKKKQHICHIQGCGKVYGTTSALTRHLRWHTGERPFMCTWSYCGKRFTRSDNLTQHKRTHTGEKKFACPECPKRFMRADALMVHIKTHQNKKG
Procedure, shortened: as §1

ZFP SBS#1474 = target: T14, ZFP SBS#1474 (synthetic)
T14 chain: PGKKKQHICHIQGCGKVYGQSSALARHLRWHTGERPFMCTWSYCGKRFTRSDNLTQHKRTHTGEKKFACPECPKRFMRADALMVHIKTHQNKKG
Procedure, shortened: as §1

ZFP SBS#1475 = target: T15, ZFP SBS#1475 (synthetic)
T15 chain: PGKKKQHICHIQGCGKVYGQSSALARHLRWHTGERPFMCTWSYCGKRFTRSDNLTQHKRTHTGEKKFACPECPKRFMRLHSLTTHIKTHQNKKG
Procedure, shortened: as §1

ZFP SBS#1487 = target: T16, ZFP SBS#1487 (synthetic)
T16 chain: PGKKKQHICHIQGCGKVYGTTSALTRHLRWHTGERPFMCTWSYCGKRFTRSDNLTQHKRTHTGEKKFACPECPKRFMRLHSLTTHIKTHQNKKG
Procedure, shortened: as §1

ZFP SBS#1465 = target: T17, ZFP SBS#1465 (synthetic)
T17 chain: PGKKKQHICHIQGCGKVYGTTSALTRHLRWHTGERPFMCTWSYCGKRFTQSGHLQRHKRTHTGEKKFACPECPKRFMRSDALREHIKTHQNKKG
Procedure, shortened: as §1

ZFP SBS#1466 = target: T18, ZFP SBS#1466 (synthetic)
T18 chain: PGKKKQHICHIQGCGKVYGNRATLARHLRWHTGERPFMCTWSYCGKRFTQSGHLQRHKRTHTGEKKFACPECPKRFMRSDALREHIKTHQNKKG
Procedure, shortened: as §1

ZFP SBS#1477 = target: T19, ZFP SBS#1477 (synthetic)
T19 chain: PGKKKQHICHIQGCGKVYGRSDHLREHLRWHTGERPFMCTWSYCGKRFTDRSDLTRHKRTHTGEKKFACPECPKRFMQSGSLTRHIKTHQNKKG
Procedure, shortened: as §1

ZFP SBS#1444 = ZFP SBS#1444 (synthetic)
Chain of ZFP SBS#1444 (synthetic) (chain, as listed by the source): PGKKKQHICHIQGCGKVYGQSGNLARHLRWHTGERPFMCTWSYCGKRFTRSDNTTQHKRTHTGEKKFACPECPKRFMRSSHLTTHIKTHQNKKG
Procedure, shortened: as §1

ZFP SBS#1443 = ZFP SBS#1443 (synthetic)
Procedure, shortened: as §1

ZFP SBS#1445 = target: T20, ZFP SBS#1445 (synthetic)
T20 chain: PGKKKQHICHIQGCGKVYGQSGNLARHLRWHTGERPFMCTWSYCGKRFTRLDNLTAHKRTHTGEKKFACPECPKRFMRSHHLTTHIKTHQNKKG
Procedure, shortened: as §1

ZFP SBS#1446 = ZFP SBS#1446 (synthetic)
Chain of ZFP SBS#1446 (synthetic) (chain, as listed by the source): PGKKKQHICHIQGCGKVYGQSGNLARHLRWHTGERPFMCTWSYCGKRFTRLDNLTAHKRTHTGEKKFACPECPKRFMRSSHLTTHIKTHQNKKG
Procedure, shortened: as §1

ZFP SBS#1490 = target: T21, ZFP SBS#1490 (synthetic)
T21 chain: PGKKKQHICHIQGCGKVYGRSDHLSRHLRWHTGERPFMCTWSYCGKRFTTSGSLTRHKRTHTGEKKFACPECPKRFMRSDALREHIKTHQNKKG
Procedure, shortened: as §1

ZFP SBS#1471 = target: T22, ZFP SBS#1471 (synthetic)
T22 chain: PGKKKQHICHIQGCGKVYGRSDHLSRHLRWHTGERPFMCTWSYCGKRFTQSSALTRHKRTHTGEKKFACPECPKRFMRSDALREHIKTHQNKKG
Procedure, shortened: as §1

ZFP SBS#1491 = target: T23, ZFP SBS#1491 (synthetic)
T23 chain: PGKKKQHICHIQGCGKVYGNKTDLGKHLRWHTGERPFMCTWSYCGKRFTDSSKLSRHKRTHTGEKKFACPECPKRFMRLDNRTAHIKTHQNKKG
Procedure, shortened: as §1

ZFP SBS#1442 = target: T24, ZFP SBS#1442 (synthetic)
T24 chain: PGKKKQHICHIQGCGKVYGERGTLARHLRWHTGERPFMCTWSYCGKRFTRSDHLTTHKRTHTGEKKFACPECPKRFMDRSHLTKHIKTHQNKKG
Procedure, shortened: as §1

ZFP SBS#1463 = ZFP SBS#1463 (synthetic)
Procedure, shortened: as §1

ZFP SBS#1454 = ZFP SBS#1454 (synthetic)
Procedure, shortened: as §1

ZFP SBS#1456 = ZFP SBS#1456 (synthetic)
Chain of ZFP SBS#1456 (synthetic) (chain, as listed by the source): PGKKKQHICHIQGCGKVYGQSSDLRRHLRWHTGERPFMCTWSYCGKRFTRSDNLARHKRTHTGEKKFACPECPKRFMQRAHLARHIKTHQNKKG
Procedure, shortened: as §1

B1: CCGTGTGAC (dsDNA)
DNA 1: CCGTGTGAC
DNA 2: GTCACACGG
Kd (ZFP SBS#1482): 111 nM
Kd (ZFP SBS#1483): 20.8 nM

B2: GACGAGGAG (dsDNA)
DNA 1: GACGAGGAG
DNA 2: CTCCTCGTC
Kd (ZFP SBS#1464): 0.002 nM
Kd (ZFP SBS#1461): 0.014 nM

B3: TGCGGGGCA (dsDNA)
DNA 1: TGCGGGGCA
DNA 2: TGCCCCGCA
Kd (ZFP SBS#1261): 0.2 nM
Kd (ZFP SBS#1263): 21 nM
Kd (ZFP SBS#558): 21 nM
Kd (ZFP SBS#1262): 3 nM

B4: CGGGATGAA (dsDNA)
DNA 1: CGGGATGAA
DNA 2: TTCATCCCG
Kd (ZFP SBS#1455): 0.043 nM
Kd (ZFP SBS#1462): 0.05 nM

B5: GAAGTGGTA (dsDNA)
DNA 1: GAAGTGGTA
DNA 2: TACCACTTC
Kd (ZFP SBS#1484): 0.01 nM

B6: AAGTGAGCT (dsDNA)
DNA 1: AAGTGAGCT
DNA 2: AGCTCACTT
Kd (ZFP SBS#1485): 1.54 nM

B7: GAAAGTTCA (dsDNA)
DNA 1: GAAAGTTCA
DNA 2: TGAACTTTC
Kd (ZFP SBS#1479): 37 nM
Kd (ZFP SBS#1480): 62.5 nM
Kd (ZFP SBS#1481): 37 nM

B8: GGTGATGTC (dsDNA)
DNA 1: GGTGATGTC
DNA 2: GACATCACC
Kd (ZFP SBS#1470): 0.156 nM
Kd (ZFP SBS#1468): 0.08 nM
Kd (ZFP SBS#1469): 0.28 nM

B9: TTGAAGGTT (dsDNA)
DNA 1: TTGAAGGTT
DNA 2: AACCTTCAA
Kd (ZFP SBS#1473): 0.47 nM
Kd (ZFP SBS#1476): 0.305 nM
Kd (ZFP SBS#1472): 3.22 nM
Kd (ZFP SBS#1474): 1.39 nM
Kd (ZFP SBS#1475): 0.39 nM
Kd (ZFP SBS#1487): 0.188 nM

B10: CTGGGAGTT (dsDNA)
DNA 1: CTGGGAGTT
DNA 2: AACTCCCAG
Kd (ZFP SBS#1465): 0.018 nM
Kd (ZFP SBS#1466): 0.017 nM

B11: GCAGCCCGG (dsDNA)
DNA 1: GCAGCCCGG
DNA 2: CCGGGCTGC
Kd (ZFP SBS#1477): 2.31 nM

B12: TGGAAGGAA (dsDNA)
DNA 1: TGGAAGGAA
DNA 2: TTCCTTCCA
Kd (ZFP SBS#1444): 0.09 nM
Kd (ZFP SBS#1443): 0.22 nM
Kd (ZFP SBS#1445): 0.182 nM
Kd (ZFP SBS#1446): 0.42 nM

B13: CTGGTTGGG (dsDNA)
DNA 1: CTGGTTGGG
DNA 2: CCCAACCAG
Kd (ZFP SBS#1490): 0.04 nM
Kd (ZFP SBS#1471): 0.09 nM

B14: AAGGGTTCA (dsDNA)
DNA 1: AAGGGTTCA
DNA 2: TGAACCCTT
Kd (ZFP SBS#1491): 4.12 nM

B15: TGCTGGGCC (dsDNA)
DNA 1: TGCTGGGCC
DNA 2: GGCCCAGCA
Kd (ZFP SBS#1442): 0.36 nM

B16: GAGGCTGTT (dsDNA)
DNA 1: GAGGCTGTT
DNA 2: AACAGCCTC
Kd (ZFP SBS#1463): 0.003 nM

B17: GGAGAGGCT (dsDNA)
DNA 1: GGAGAGGCT
DNA 2: AGCCTCTCC
Kd (ZFP SBS#1454): 0.01 nM
Kd (ZFP SBS#1456): 0.016 nM
